Assay results from US12221488B2, “APJ antibody, fusion protein thereof with Elabela, and pharmaceutical compositions and use thereofus01” (GMAX BIOPHARM LLC, priority 2018, dated 2025).
One block for each molecule: values may come before it. Where no end group is shown, it is not given here.

Columns and labels:
hAPJ [1] = biological target: T1, hAPJ (Homo sapiens, UniProt P35414); test: Reporter gene assay (hAPJ-CRE-Luciferase CHO-DHFR- cells) of in vitro activation of Elabela/APJ signaling pathway; format: cell-based; details: for EC50: 0.6 μM forskolin, 6 hours at 37° C., Bright Glo readout; for blocking or activation of APJ receptor by the antibody: reporter gene assay
T1 construct: expressed in transfected cells; host or cells: CHO-DHFR- cells expressing hAPJ and a CRE-luciferase reporter
T1 sequence (P35414 1-380): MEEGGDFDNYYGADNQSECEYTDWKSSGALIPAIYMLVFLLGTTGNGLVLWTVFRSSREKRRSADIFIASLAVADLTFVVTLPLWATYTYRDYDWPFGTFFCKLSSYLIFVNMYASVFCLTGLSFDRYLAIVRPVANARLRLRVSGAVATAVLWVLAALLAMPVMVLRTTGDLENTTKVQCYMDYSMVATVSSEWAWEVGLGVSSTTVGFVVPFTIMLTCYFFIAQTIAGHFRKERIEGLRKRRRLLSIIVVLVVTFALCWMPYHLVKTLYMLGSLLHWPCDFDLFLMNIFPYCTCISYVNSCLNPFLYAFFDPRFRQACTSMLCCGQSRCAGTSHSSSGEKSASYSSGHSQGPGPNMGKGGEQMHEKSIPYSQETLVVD
Description: 35000 hAPJ-CRE-Luciferase expressing CHO-DHFR-cells per well were seeded into 96 well plate, and cultured overnight at 37° C. The culture supernatant was removed the second day, cells were washed twice with serum-free medium, and the residue liquid was aspirated. 50 μL of 0.6 μM forskolin was added in 96 well plate in advance, then 50 μL of Elabela fusion protein or Elabela-11 polypeptide diluted in serum-free medium was added, and incubated at 37° C. for 6 hours. After stimulation, 100 μL Bright Glo chemical luminescence substrate (Promega) was added, then the cell lysate was transferred to white 96 well plate, and the relative intensity of […] was read in the SpectraMax L (Molecular Devices). The data were fitted with prism5.0 and EC50 was calculated.

hAPJ [2] = biological target: T1, hAPJ; test: FACS analysis of binding of APJ antibodies to CHO-DHFR-hAPJ cells; details: mouse ascites antibody at 500 nM and 4 nM on CHO-DHFR-hAPJ; negative control 500 nM on blank CHO-DHFR- cells
Description: PBS containing EDTA was used to detach and collect 10^5 CHO-DHFR-hAPJ cells into 1.5 mL EP tubes. The supernatant was removed after centrifugation. The negative control sample was resuspended with a FACS loading buffer (PBS, 2% FBS). For the positive control, 200 μL antibody supernatant with certain concentration was added to resuspend cells and then incubated at room temperature; the cells were then centrifuged at 1500 rpm to remove the supernatant, washed with a FACS loading buffer and centrifuged again. The cells were resuspended followed by addition (200 μL/well) of a FITC labeled goat anti-mouse fluorescent secondary antibody at 1:50 dilution and incubated at room temperature for 30 min in the dark. Supernatant was removed after centrifugation, cells were washed with FACS loading buffer, centrifuged again and resuspended with the loading buffer for analysis.

Molecule: L5H5 and Linker2-EA3: fusion protein of hAPJ antibody L5H5 and Linker2-EA3 (comprising SEQ ID NO: 123 and SEQ ID NO: 109) (GGGGSGGGGSQRRCMPLHSRVPMPF; also: fused to hAPJ antibody L5H5)
EC50 (hAPJ [1]): 20.3 nM
EC50 (hAPJ [1]; listed as L5H5 and linker2-EA3): 20.3 nM

B1: L4H4: APJ antibody with light chain variable domain SEQ ID NO: 62 and heavy chain variable domain SEQ ID NO: 67 (antibody, listed as Mus musculus, V domains shown)
VH: EIKLVESGGGLVKPRGSLKLSCAASGFTFSSYAMSWVRQTPEKRLEWVASISSGGSIYLPDSLKGRFTISRDNAWNILYLQMNSLKSEDTAMYYCTRGRGNSSAWFAYWGQGTLVTVSA
VL: DVLMTQTPLSLPVSLGDQASISCRSDQSLVHRTGNTHLDWYLQKPGQSPKLLIYKVSNRFSGVPDRFSGSGSGTDFTLKISRVEAEDLGVYYCFQASHIPFTFGSGTKLEIKR
specific binding to hAPJ (FACS peak shift versus negative control) (hAPJ [2]): shifted to the right obviously
blocking or activation of APJ receptor by the antibody (hAPJ [1]): did not block or activate APJ receptor

B2: L1H1: APJ antibody with light chain variable domain SEQ ID NO: 59 and heavy chain variable domain SEQ ID NO: 64 (antibody, listed as Mus musculus, V domains shown)
VH: EVQLIETGGGLVQPTGSLQLSCAASGFPFNINAMNWVRQAPGKGLEWVARIRSKSNNYATYYADSVKDRFTISRDDSQSILYLQMNNLKTEDSAMYFCVRGPYLYAMDYWGQGTSVTVSS
VL: DIQMNQSPSSLSASLGDTITITCHASQNIHVWLSWYQQKPGNIPKLLIYKASNLHTGVPSRFSGSGSGTGFTLTISSLQPEDIATYYCQQGHSYPLTFGGGTKLEIKR
specific binding to hAPJ (FACS peak shift versus negative control) (hAPJ [2]): shifted to the right obviously
blocking or activation of APJ receptor by the antibody (hAPJ [1]): did not block or activate APJ receptor

Continued, values first:

EC50 (hAPJ [1]): 2.6 nM
EC50 (hAPJ [1]; listed as L5H5 and linker2-EA5): 2.55 nM
Molecule: L5H5 and Linker2-EA5: fusion protein of hAPJ antibody L5H5 and Linker2-EA5 (comprising SEQ ID NO: 123 and SEQ ID NO: 94) (GGGGSGGGGSQRRCMPLHSRVPAP; also: fused to hAPJ antibody L5H5)

EC50 (hAPJ [1]): 5.4 nM
EC50 (hAPJ [1]; listed as L5H5 and linker2-EA4): 5.43 nM
Molecule: L5H5 and Linker2-EA4: fusion protein of hAPJ antibody L5H5 and Linker2-EA4 (comprising SEQ ID NO: 123 and SEQ ID NO: 116) (GGGGSGGGGSQRRCLSHKGPMPF; also: fused to hAPJ antibody L5H5)
